According to PMC12118636 (Science Advances, 2025):

Target: Human calmodulin (human, UniProt P0DP23 1-149)
Experiment: ITC

Kd: ~214 µM
B1: Human NaV1.9 C-tail (residues 1618 to 1766) (domain or fragment)
chain: LGEDDFDIFYEVWEKFDPEATQFIKYSALSDFADALPEPLRVAKPNKYQFLVMDLPMVSEDRLHCMDILFAFTARVLGGSDGLDSMKAMMEEKFMEANPLKKLYEPIVTTTKRKEEERGAAIIQKAFRKYMMKVTKGDQGDQNDLENGP
